The supplement of paper PMC10567573

B1: BTBD10 (parent)
chain: DRKLHSRPRKLYKHSSTSSRIAKG
B2: CDC25A (parent)
chain: KKFRTKSRTWAGEKSKREMYSRLK

Variants of: B1
Assay: protein stability index of a GFP-peptide fusion (GPS, HEK-293T) (PSI 1-6); higher = more stable
Conditions: c terminus: a fixed tail appended
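Note: lentivirally expressed fusions sorted by FACS into six bins by GFP to DsRed ratio, PSI derived from sequencing read proportions per bin multiplied by bin number.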

| Variant | protein stability index |
| --- | --- |
| D1E | 3.89 |
| D1A | 3.27 |
| D1F | 2.9 |
| D1C | 3.94 |
| D1H | 3.42 |
| D1I | 2.54 |
| D1L | 3.2 |
| D1K | 3.2 |
| D1G | 3.47 |

Variants of: B2
Assay: as above
Conditions: c terminus: a fixed tail appended

| Variant | protein stability index |
| --- | --- |
| K16N | 3 |
| K16L | 3.16 |
| K16H | 3.56 |
| K16Q | 3.71 |
| K16A | 2.62 |
| K16Y | 2.38 |
| K16G | 2.79 |
| K16M | 3.99 |
| K16D | 3.24 |
| K16P | 3.11 |
| K16R | 1.22 |
| K16S | 3.04 |
| K16V | 2.78 |
| K16W | 2.1 |
| K16I | 2.28 |
| E18S | 2.43 |
| E18P | 2.17 |
| E18G | 2.98 |
| E18Q | 2.37 |
| E18W | 4.23 |
| E18T | 2.19 |
| E18N | 3 |
| E18M | 2.87 |

| Variant | protein stability index |
| --- | --- |
| E18K | 1.94 |
| E18H | 2.71 |
| E18I | 3.64 |
| E18L | 2.64 |
| E18Y | 1.9 |
| E18F | 2.88 |
| E18D | 3.12 |
| E18C | 3.07 |
| S21I | 2.25 |
| S21H | 2.69 |
| S21D | 2.95 |
| S21T | 2.56 |
| S21R | 2.73 |
| S21P | 2.99 |
| S21Y | 2.01 |
| S21F | 2.7 |
| S21G | 3.32 |
| S21Q | 2.54 |
| S21L | 3.38 |
| S21E | 3.01 |
| S21M | 3.36 |
| S21C | 2.56 |
| S21A | 2.97 |

| Variant | protein stability index |
| --- | --- |
| S21K | 3.08 |
| S21N | 3.21 |
| R17D | 3.6 |
| R17G | 2.99 |
| R17S | 3.08 |
| R17F | 2.86 |
| R17P | 4.04 |
| R17C | 3.34 |
| R17K | 2.21 |
| R17Q | 3.17 |
| R17I | 3.25 |
| R17T | 3.48 |
| R17L | 2.84 |
| R17H | 3 |
| R17Y | 3.4 |
| R17V | 2.97 |
| R17N | 2.24 |
| R17A | 2.77 |
| R22V | 3.24 |
| R22W | 2.28 |
| R22L | 2.82 |
| R22M | 3.13 |
| R22N | 3.81 |

| Variant | protein stability index |
| --- | --- |
| R22P | 2.33 |
| R22D | 2.49 |
| R22T | 3.41 |
| R22Y | 2.03 |
| R22C | 3.17 |
| R22H | 3.02 |
| R22Q | 2.83 |
| R22G | 3.92 |
| R22I | 2.01 |
| R22A | 2.19 |
| R22F | 2.99 |
| R22K | 2.92 |
| R22S | 2.79 |
| M19R | 3.44 |
| M19A | 3.13 |
| M19H | 3.54 |
| M19P | 3.41 |
| M19N | 4.2 |
| M19S | 4.21 |
| M19I | 2.8 |
| M19Y | 3.24 |
| M19E | 3.79 |
| M19W | 2.77 |

| Variant | protein stability index |
| --- | --- |
| M19K | 4.05 |
| M19F | 3.53 |
| M19L | 2.7 |
| M19D | 4.05 |
| M19Q | 4.14 |
| M19T | 3 |
| K24A | 2.37 |
| K24D | 3.13 |
| K24I | 2.32 |
| K24P | 3.49 |
| K24L | 2.31 |
| K24F | 2.06 |
| K24Q | 2.58 |
| K24G | 2.52 |
| K24E | 3.27 |
| K24N | 3.32 |
| K24H | 2.62 |
| K24Y | 1.37 |
| K24R | 2.91 |
| K24M | 2.37 |
| K24C | 2.08 |
| K24S | 3.16 |
| K24T | 2.94 |

| Variant | protein stability index |
| --- | --- |
| L23T | 3.61 |
| L23M | 2.73 |
| L23K | 3.84 |
| L23W | 2.41 |
| L23V | 3.65 |
| L23S | 3.92 |
| L23R | 4.46 |
| L23H | 3.39 |
| L23Q | 3.74 |
| L23C | 2.87 |
| L23I | 3.33 |
| L23P | 3.94 |
| L23Y | 2.57 |
| L23A | 3.49 |
| L23N | 4.01 |
| S15T | 3.88 |
| S15N | 2.52 |
| S15W | 1.3 |
| S15M | 3.2 |
| S15I | 2.45 |
| S15G | 2.52 |
| S15Y | 1.94 |
| S15Q | 2.38 |

| Variant | protein stability index |
| --- | --- |
| S15V | 2.52 |
| S15R | 2.73 |
| S15L | 2.58 |
| S15K | 3.14 |
| S15H | 3.12 |
| Y20T | 3.41 |
| Y20V | 2.92 |
| Y20M | 3.29 |
| Y20N | 3.02 |
| Y20I | 3.13 |
| Y20K | 4.45 |
| Y20P | 4.12 |
| Y20S | 4.69 |
| Y20C | 3.97 |
| Y20Q | 4.34 |
| Y20H | 3.01 |
| Y20L | 2.33 |
| Y20W | 2.37 |
| Y20D | 3.35 |
| Y20F | 2.88 |
